Patent US20230183753A1, “Methods of in Vitro Cell Delivery” (Intellia Therapeutics, Inc., priority 2020, published 2023)
Oligonucleotides are written 5' to 3', each unit as a sugar letter and its base; * is a phosphorothioate linkage, no mark a phosphodiester; rarer units and linkages stand in square brackets, end groups in braces. Plain capitals give the bases only. m = 2'-O-methyl; r = 2'-OH (RNA)

Assays:
B2M, CD3, MHC II = test: Flow cytometry of antigen negative T cells (B2M, CD3, MHC II) after BC22n or Cas9 editing, Example 16A; type: cell-based, human
Source text: Cells were subsequently washed, processed on a Cytoflex instrument (Beckman Coulter) and analyzed using the FlowJo software package. T cells were gated based on size, shape, viability, and antigen expression.

[1] = system: B2M, TRAC, TRBC1/2, CIITA; test: NGS editing profile of T cells with BC22n or Cas9 mRNA, single or four guides, LNP titration, Example 16A; type: cell-based, human; conditions: LNP;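 also: activated T cells exposed to LNPs 72 h after activation, kept at 37 °C, harvested on day 10 post activation, editing measured by NGS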
Procedure: Cells were expanded in T cell basal media for 72 hours prior to LNP transfection.
LNPs were mixed to fixed total mRNA weight ratios of 6:3:2 for editor mRNA, guide RNA, and UGI mRNA respectively as described in Table 12. […] LNP mixtures were incubated for 5 minutes at 37° C. in T cell basal media substituting 6% cynomolgus monkey serum (Bioreclamation IVT, Cat. CYN220760) for fetal bovine serum.
T cells were incubated at 37° C. with 5% CO2 for the duration of the experiment.
In total, T cells were exposed to 6 different LNPs simultaneously (editor mRNA, UGI mRNA, 4 guides).

[2] = multiple guide delivery (four guides simultaneously), locus of the guide assayed, editor BC22n, total RNA 8.6 ng
[3] = multiple guide delivery (four guides simultaneously), locus of the guide assayed, editor BC22n, total RNA 17.2 ng
[4] = multiple guide delivery (four guides simultaneously), locus of the guide assayed, editor BC22n, total RNA 34.4 ng
[5] = multiple guide delivery (four guides simultaneously), locus of the guide assayed, editor BC22n, total RNA 68.8 ng
[6] = multiple guide delivery (four guides simultaneously), locus of the guide assayed, editor BC22n, total RNA 137.5 ng
[7] = multiple guide delivery (four guides simultaneously), locus of the guide assayed, editor BC22n, total RNA 275.0 ng
[8] = multiple guide delivery (four guides simultaneously), locus of the guide assayed, editor BC22n, total RNA 550.0 ng
[9] = multiple guide delivery (four guides simultaneously), locus of the guide assayed, editor Cas9, total RNA 8.6 ng
[10] = multiple guide delivery (four guides simultaneously), locus of the guide assayed, editor Cas9, total RNA 17.2 ng
[11] = multiple guide delivery (four guides simultaneously), locus of the guide assayed, editor Cas9, total RNA 34.4 ng
[12] = multiple guide delivery (four guides simultaneously), locus of the guide assayed, editor Cas9, total RNA 68.8 ng
[13] = multiple guide delivery (four guides simultaneously), locus of the guide assayed, editor Cas9, total RNA 137.5 ng
[14] = multiple guide delivery (four guides simultaneously), locus of the guide assayed, editor Cas9, total RNA 275.0 ng
[15] = multiple guide delivery (four guides simultaneously), locus of the guide assayed, editor Cas9, total RNA 550.0 ng
[16] = single guide delivery, editor BC22n, total RNA 8.6 ng
[17] = single guide delivery, editor BC22n, total RNA 17.2 ng
[18] = single guide delivery, editor BC22n, total RNA 34.4 ng
[19] = single guide delivery, editor BC22n, total RNA 68.8 ng
[20] = single guide delivery, editor BC22n, total RNA 137.5 ng
[21] = single guide delivery, editor BC22n, total RNA 275.0 ng
[22] = single guide delivery, editor BC22n, total RNA 550.0 ng
[23] = single guide delivery, editor Cas9, total RNA 8.6 ng
[24] = single guide delivery, editor Cas9, total RNA 17.2 ng
[25] = single guide delivery, editor Cas9, total RNA 34.4 ng
[26] = single guide delivery, editor Cas9, total RNA 68.8 ng
[27] = single guide delivery, editor Cas9, total RNA 137.5 ng
[28] = single guide delivery, editor Cas9, total RNA 275.0 ng
[29] = single guide delivery, editor Cas9, total RNA 550.0 ng

B1: G018117: guide targeting CIITA (SEQ ID NO: 714) (nucleic acid)
guide: mG*mC*mG*rUrCrCrArCrArUrCrCrUrGrCrArArGrGrGrGrUrUrUrUrArGrAmGmCmUmAmGmAmAmAmUmAmGmCrArArGrUrUrArArArArUrArArGrGrCrUrArGrUrCrCrGrUrUrArUrCrAmAmCmUmUmGmAmAmAmAmAmGmUmGmGmCmAmCmCmGmAmGmUmCmGmGmUmGmCmU*mU*mU*mU
With B1 the “percent cells negative for antigen, HLA DR DP DQ neg, Mean %” value (“percent cells negative … Mean %” below) (B2M, CD3, MHC II; editor BC22n, total RNA 8.6 ng) was 41.6%, the “percent cells negative … Mean %” value (B2M, CD3, MHC II; editor BC22n, total RNA 17.2 ng) was 49.9% and the “percent cells negative … Mean %” value (B2M, CD3, MHC II; editor BC22n, total RNA 34.4 ng) was 65.8%. For the same molecule, the “percent cells negative … Mean %” value (B2M, CD3, MHC II; editor BC22n, total RNA 68.8 ng) was 74.5%, the “percent cells negative … Mean %” value (B2M, CD3, MHC II; editor BC22n, total RNA 137.5 ng) was 85.2% and the “percent cells negative … Mean %” value (B2M, CD3, MHC II; editor BC22n, total RNA 275.0 ng) was 92.5%. For the same molecule, the “percent cells negative … Mean %” value (B2M, CD3, MHC II; editor BC22n, total RNA 550.0 ng) was 95.7%, the “percent cells negative … Mean %” value (B2M, CD3, MHC II; editor Cas9, total RNA 8.6 ng) was 34.2% and the “percent cells negative … Mean %” value (B2M, CD3, MHC II; editor Cas9, total RNA 17.2 ng) was 36.2%. For the same molecule, the “percent cells negative … Mean %” value (B2M, CD3, MHC II; editor Cas9, total RNA 34.4 ng) was 40.7%, the “percent cells negative … Mean %” value (B2M, CD3, MHC II; editor Cas9, total RNA 68.8 ng) was 48.9% and the “percent cells negative … Mean %” value (B2M, CD3, MHC II; editor Cas9, total RNA 137.5 ng) was 55.5%. For the same molecule, the “percent cells negative … Mean %” value (B2M, CD3, MHC II; editor Cas9, total RNA 275.0 ng) was 65.6%, the “percent cells negative … Mean %” value (B2M, CD3, MHC II; editor Cas9, total RNA 550.0 ng) was 72.0% and the C-to-A/G % mean [1, 2] was 3.1%. It also gave a C-to-T % mean [1, 2] of 4.6%, an Indel % mean [1, 2] of 0.8% and a C-to-A/G % mean [1, 3] of 2.9%. It also gave a C-to-T % mean [1, 3] of 10.5%, an Indel % mean [1, 3] of 1.1% and a C-to-A/G % mean [1, 4] of 2.9%. The C-to-T % mean [1, 4] was 18.8%, the Indel % mean [1, 4] was 1.6% and the C-to-A/G % mean [1, 5] was 2.7%. It also gave a C-to-T % mean [1, 5] of 35.1%, an Indel % mean [1, 5] of 1.6% and a C-to-A/G % mean [1, 6] of 2.9%. It also gave a C-to-T % mean [1, 6] of 52.9%, an Indel % mean [1, 6] of 1.5% and a C-to-A/G % mean [1, 7] of 2.5%. It also gave a C-to-T % mean [1, 7] of 71.9%, an Indel % mean [1, 7] of 1.3% and a C-to-A/G % mean [1, 8] of 2.6%. The C-to-T % mean [1, 8] was 81.1%, the Indel % mean [1, 8] was 1.1% and the C-to-A/G % mean [1, 9] was 2.6%. The C-to-T % mean [1, 9] was 0.2%, the Indel % mean [1, 9] was 1.4% and the C-to-A/G % mean [1, 10] was 2.5%. The C-to-T % mean [1, 10] was 0.2%, the Indel % mean [1, 10] was 2.1% and the C-to-A/G % mean [1, 11] was 2.5%. The C-to-T % mean [1, 11] was 0.3%, the Indel % mean [1, 11] was 3.9% and the C-to-A/G % mean [1, 12] was 2.5%. The C-to-T % mean [1, 12] was 0.2%, the Indel % mean [1, 12] was 7.7% and the C-to-A/G % mean [1, 13] was 2.2%. It also gave a C-to-T % mean [1, 13] of 0.2%, an Indel % mean [1, 13] of 13.3% and a C-to-A/G % mean [1, 14] of 1.9%. For the same molecule, the C-to-T % mean [1, 14] was 0.1%, the Indel % mean [1, 14] was 26.7% and the C-to-A/G % mean [1, 15] was 1.7%. For the same molecule, the C-to-T % mean [1, 15] was 0.1%, the Indel % mean [1, 15] was 42.3% and the C-to-A/G % mean [1, 16] was 3.8%. It also gave a C-to-T % mean [1, 16] of 14.5%, an Indel % mean [1, 16] of 3.5% and a C-to-A/G % mean [1, 17] of 3.5%. For the same molecule, the C-to-T % mean [1, 17] was 28.1%, the Indel % mean [1, 17] was 3.9% and the C-to-A/G % mean [1, 18] was 3.3%. It also gave a C-to-T % mean [1, 18] of 45.9%, an Indel % mean [1, 18] of 3.6% and a C-to-A/G % mean [1, 19] of 3.6%. The C-to-T % mean [1, 19] was 62.8%, the Indel % mean [1, 19] was 3.7% and the C-to-A/G % mean [1, 20] was 2.7%. It also gave a C-to-T % mean [1, 20] of 78.9%, an Indel % mean [1, 20] of 2.7% and a C-to-A/G % mean [1, 21] of 2.6%. The C-to-T % mean [1, 21] was 86.3%, the Indel % mean [1, 21] was 2.0% and the C-to-A/G % mean [1, 22] was 2.6%. The C-to-T % mean [1, 22] was 92.3%, the Indel % mean [1, 22] was 1.1% and the C-to-A/G % mean [1, 23] was 2.5%. It also gave a C-to-T % mean [1, 23] of 0.3%, an Indel % mean [1, 23] of 6.0% and a C-to-A/G % mean [1, 24] of 2.4%. The C-to-T % mean [1, 24] was 0.2%, the Indel % mean [1, 24] was 11.2% and the C-to-A/G % mean [1, 25] was 2.1%. It also gave a C-to-T % mean [1, 25] of 0.2%, an Indel % mean [1, 25] of 20.8% and a C-to-A/G % mean [1, 26] of 1.9%. For the same molecule, the C-to-T % mean [1, 26] was 0.2%, the Indel % mean [1, 26] was 33.2% and the C-to-A/G % mean [1, 27] was 1.3%. The C-to-T % mean [1, 27] was 0.1%, the Indel % mean [1, 27] was 51.2% and the C-to-A/G % mean [1, 28] was 0.9%. The C-to-T % mean [1, 28] was 0.1%, the Indel % mean [1, 28] was 64.5% and the C-to-A/G % mean [1, 29] was 0.6%. For the same molecule, the C-to-T % mean [1, 29] was 0.1% and the Indel % mean [1, 29] was 78.4%.
